Experimental findings from the supplement of paper PMC10567573 are described below.

± gives the standard deviation.

This data set is described as follows: protein stability index of a GFP-peptide fusion (GPS, HEK-293T) (PSI 1-6); higher = more stable.
[1] abbreviates: treatment: DMSO, c terminus: a fixed tail appended.
The mark [2] stands for this setting: treatment: MLN4924 1 uM, 8 h, c terminus: a fixed tail appended.
Setting [3] is: treatment: DMSO, c terminus: native.
Setting [4] is: treatment: MLN4924 1 uM, 8 h, c terminus: native.
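Further: 24-mer peptide tiles fused after GFP, lentivirally expressed, FACS-sorted into six equal bins by GFP/DsRed ratio, decoded by Illumina sequencing, PSI is the read-weighted mean bin number.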

Regarding IASEPTNKHLFYAEDFSTMDEISE [MATN2], the protein stability index was found to be 4.57 ± 0.27 under setting [1] and 4.59 ± 0.23 under setting [2].

In the case of ICDPGLTSFEPEALGNLVEGMDFH [CAMK2B], the protein stability index was 3.92 ± 0.23 under setting [1] and 4.07 ± 0.13 under setting [2].

For ICGFLKERCFRGSSYPVCVSKVVK [OAS1], the protein stability index reads like this: under setting [1], 2.62 ± 0.31; under setting [2], 2.13 ± 0.3.

For IDEQDSYIQSRADTMQNIESTIVE [STX5], the protein stability index amounted to 5.23 ± 0.31 under setting [1] and 5.14 ± 0.12 under setting [2].

Consider IDKNTQLTLQVYREQADSCREQLD [TRIM14], for which the protein stability index by setting is: under setting [1], 4.58 ± 0.21; under setting [2], 4.18 ± 0.79.

With IENNKYGWFWVCPGGGDICMYRHA [ZC3H15], the protein stability index worked out at 2.52 ± 0.32 under setting [1] and 2.15 ± 0.53 under setting [2].

As for IERMKQIYQQLSRYRGLGLLASVP [CRY1], the protein stability index is, setting by setting: under setting [1], 2.3 ± 0.49; under setting [2], 2.36 ± 0.35.

For IFIARRSLLDELLEVDHIRTIYHM [SOAT1], the protein stability index came to 2.8 ± 0.58 under setting [1] and 2.66 ± 0.75 under setting [2].

For the sequence IFYDLVRQINRKTPVPGKARKKSS [RAP1B], the protein stability index under setting [1] was 2.47 ± 0.47 and the protein stability index under setting [2] came to 2.37 ± 0.4.

IGCGNFGELRLGKNLYTNEYVAIK [CSNK1G3]: the protein stability index reads like this: under setting [1], 2.07 ± 0.18; under setting [2], 2.12 ± 0.44.

Regarding IGPIHLNEIQCTGNEKSIIDCKFN [LOXL2], the protein stability index amounted to 3.63 ± 0.15 under setting [1] and 3.67 ± 0.23 under setting [2].

For the sequence IGVGLGFELQRLEFDLSPLNLDIG [AASDHPPT], the protein stability index was determined as 2.3 ± 0.55 under setting [1] and 2.29 ± 0.24 under setting [2].

As for IHERTHERERLYPFSECGEAVSDS [ZNF263], the protein stability index was determined as 4.81 ± 0.41 under setting [1] and 4.88 ± 0.22 under setting [2].

For the sequence IISSDELNVRSEEQVFNAVMAWVK [KLHL20], the protein stability index amounted to 2.28 ± 0.22 under setting [1] and 2.42 ± 0.32 under setting [2].

IIYVASNHFVWRLIPVPMATQIQQ [VPS39]: the protein stability index runs as follows: under setting [1], 3.19 ± 0.35; under setting [2], 3.09 ± 0.65.

For IKPPCIPNGKENFSGGTSLWQNI [CAMK2D], the protein stability index runs as follows: under setting [3], 3.2 ± 0.13; under setting [4], 3.2 ± 0.21.

As for IKSKKKLLQIIDTTLLKCYLHTNV [VPS39], the protein stability index is 3.04 ± 0.37 under setting [1] and 2.86 ± 0.52 under setting [2].

For the sequence ILCNKTAYQEVFKPENISLRNKLR [SMG5], the protein stability index runs as follows: under setting [1], 2.46 ± 0.24; under setting [2], 2.77 ± 0.23.

For the sequence ILDSLLFFYDCSNNPISEHFHPTV [TENT5C], the protein stability index by setting is: under setting [1], 3.15 ± 0.71; under setting [2], 3.13 ± 0.68.

ILHIPQVTKLCVQFLNDQISVQNY [KLHL14]: the protein stability index reads like this: under setting [1], 2.54 ± 0.45; under setting [2], 2.51 ± 0.52.

With ILREIRHPNIITLHDIFENKTDVV [DAPK3], the protein stability index came to 2.47 ± 0.21 under setting [1] and 2.54 ± 0.2 under setting [2].

ILRLPLEHACTVRNLARSQSVKMK [TAF7L]: the protein stability index runs as follows: under setting [1], 2.92 ± 0.18; under setting [2], 3.19 ± 0.34.

Regarding IPAAVLAGFTGSGPIQLWQFLLEL [ETS2], the protein stability index worked out at 2.69 ± 0.62 under setting [1] and 2.5 ± 0.25 under setting [2].

Regarding IPQGICPVGRSWHSLTPVSSDHLF [KLHDC2], the protein stability index reads like this: under setting [1], 2.68 ± 0.28; under setting [2], 2.52 ± 0.21.

On to IQLIKTNKKHIHSRSTLECAYRTH [SMG5], for which the protein stability index runs as follows: under setting [1], 2.38 ± 0.096; under setting [2], 2.54 ± 0.1.

With IQWKNHDQNNHNTDRSSHKDSMN [EDNRA], the protein stability index is 5.36 ± 0.29 under setting [3] and 5.49 ± 0.23 under setting [4].

Consider IRISMSHEEEPLGTAGPLALARDL [GMPPB], for which the protein stability index is, setting by setting: under setting [1], 3 ± 0.053; under setting [2], 3.27 ± 0.34.

IRRPVNVPIDIFSEEIRFYQLGEE [KCNA3] yielded a protein stability index under setting [1] of 2.59 ± 0.56 and a protein stability index under setting [2] of 2.75 ± 0.37.

Consider ITCSSTMSYSCCLPSLGCRTSCSS [KRT34], for which the protein stability index is, setting by setting: under setting [1], 2.19 ± 0.16; under setting [2], 2.1 ± 0.32.

For ITHSTYSLPASSYSQDPVYANGGL [NOL4L], the protein stability index was 2.96 ± 0.32 under setting [1] and 3.18 ± 0.2 under setting [2].

For ITIEPGTSYRLQGLKPNSLYYFRL [PTPRD], the protein stability index under setting [1] was 2.63 ± 0.12 and the protein stability index under setting [2] is 2.61 ± 0.43.

For the sequence IVFPEKLNGSVLPGSGAPARLLCR [ADAMTS4], the protein stability index by setting is: under setting [1], 2.87 ± 0.26; under setting [2], 2.59 ± 0.4.

In the case of IWFRVPYSIISLLLKDKVRERIQI [PTPN9], the protein stability index reads like this: under setting [1], 2.56 ± 0.65; under setting [2], 2.77 ± 1.5.

As to IYSVVDLGMYQKVTSYCRSATLVG [SLC19A2], the protein stability index reads like this: under setting [1], 2.69 ± 0.42; under setting [2], 2.74 ± 0.69.

Regarding IYVIGDLDTGTNYDYVREFKRSTG [GAN], the protein stability index by setting is: under setting [1], 2.18 ± 0.43; under setting [2], 2.04 ± 0.43.

In turn, IYVVGGYSWNNRCMVEIVQKYDPD [KLHL13] had a protein stability index under setting [1] of 2.99 ± 1.6 and a protein stability index under setting [2] of 2.91 ± 1.3.

For the sequence KCKSTLSPPEASPGPPAAPRARRR [PWWP2B], the protein stability index under setting [1] was 5.19 ± 0.12 and the protein stability index under setting [2] turned out to be 5.34 ± 0.26.

As to KCLLYCNGVLEPLYLCPNGARCAT [SLC25A39], the protein stability index under setting [1] was determined as 2.24 ± 0.11 and the protein stability index under setting [2] was determined as 2.11 ± 0.27.

In the case of KDAAKQIAWIKDKLLHIYYQNSID [PDS5B], the protein stability index was 1.78 ± 0.31 under setting [1] and 2.39 ± 0.26 under setting [2].

Turning to KDEPSKYNQQQALIDQRYFQVLCS [CEP70], the protein stability index is 3 ± 0.063 under setting [1] and 3.13 ± 0.24 under setting [2].

KDGVTMAPAFRLSLKAKVSDNMSH [FSD1] had a protein stability index under setting [1] of 3.56 ± 0.35 and a protein stability index under setting [2] of 3.75 ± 0.26.

On to KDIQPYMRRMVATWMLEVCEEQKC [CCND2], for which the protein stability index was 2.33 ± 0.24 under setting [1] and 2.65 ± 0.3 under setting [2].

In the case of KDIVQTVRSRLEEAGIKVHDVRLN [TENT5C], the protein stability index under setting [1] was found to be 2.44 ± 0.35 and the protein stability index under setting [2] turned out to be 2.78 ± 0.28.

As to KDPSAIGKKQVPCFASMLTKKLHF [CASP6], the protein stability index turned out to be 2.23 ± 0.14 under setting [1] and 2.36 ± 0.16 under setting [2].

As for KDTDLARVRRFQVVEVTKGILEHV [M1AP], the protein stability index is 2.55 ± 0.47 under setting [1] and 2.86 ± 0.56 under setting [2].

As for KEDQFGRTPLMYCVLADRLDCADA [INVS], the protein stability index runs as follows: under setting [1], 3.12 ± 0.41; under setting [2], 3.26 ± 0.3.

Regarding KEGGQAGSGQRVPALEEAPDSHQK [ELOA2], the protein stability index is, setting by setting: under setting [1], 5.32 ± 0.21; under setting [2], 5.47 ± 0.28.

Turning to KELRKDYQGPGTRRLQEVLGVQTG [DYRK1B], the protein stability index runs as follows: under setting [1], 4.07 ± 0.16; under setting [2], 4.42 ± 0.17.

As for KEYEKALKYVRGLLQTEPQNNQAK [FIS1], the protein stability index is 2.86 ± 0.14 under setting [1] and 3 ± 0.45 under setting [2].

Take KGCKVTLPEKPVKLASHTRDTTGV [FBF1]: the protein stability index by setting is: under setting [1], 4.21 ± 0.24; under setting [2], 4.58 ± 0.17.

In the case of KGKKLYPVVSAVWGHCEVTMRYIN [SPSB4], the protein stability index by setting is: under setting [1], 2.43 ± 0.82; under setting [2], 2.65 ± 0.6.

As for KGRTIYLEDIYVMPEYRGQGIGSK [SAT2], the protein stability index reads like this: under setting [1], 2.44 ± 0.31; under setting [2], 2.79 ± 0.12.

For KHLARQLEEKDRVLKKQDAFYKEQ [CHCHD3], the protein stability index is 4.33 ± 0.2 under setting [1] and 4.57 ± 0.24 under setting [2].

As for KHRIRRVLIVDWDVHHGQGTQFTF [HDAC6], the protein stability index came to 3.35 ± 0.42 under setting [1] and 3.14 ± 0.83 under setting [2].

KICESLNVPVDDSLVKELLRMCSH [EFHC1]: the protein stability index under setting [1] was found to be 2.11 ± 0.21 and the protein stability index under setting [2] turned out to be 2.09 ± 0.44.

Regarding KIEGHQDAVTAALLIPKEDGVITA [WDFY1], the protein stability index under setting [1] came out at 4.35 ± 0.23 and the protein stability index under setting [2] turned out to be 4.4 ± 0.28.

KIMGVEEEDDDDDDDDNLPQLKKE [ANKRD40]: the protein stability index turned out to be 5.6 ± 0.24 under setting [1] and 5.46 ± 0.19 under setting [2].

Turning to KKHGTQNKRAALQALKRKKRFEKQ [CHMP4C], the protein stability index under setting [1] turned out to be 4.52 ± 0.3 and the protein stability index under setting [2] came to 4.52 ± 0.19.

With KLAKVYSYAHGWMFQGWNCGDYFP [CPN1], the protein stability index reads like this: under setting [1], 2.52 ± 0.43; under setting [2], 2.52 ± 0.38.

Take KLFYFKIWAFLDVSFVERILKSQK [FBXO39]: the protein stability index was 2.62 ± 0.74 under setting [1] and 2.47 ± 0.5 under setting [2].

Sequence KLSCLFAGPHSTLTPPCSPPEDGL [SNX8] yielded a protein stability index under setting [1] of 3.25 ± 0.18 and a protein stability index under setting [2] of 3.19 ± 0.4.

Take KNFFKKAAAALFGGKKDKARYIDT [PLK2]: the protein stability index is, setting by setting: under setting [1], 1.95 ± 0.33; under setting [2], 2.4 ± 0.63.

As for KNRSFDIDAIYSVIDDAKQYVYIA [PLD5], the protein stability index is, setting by setting: under setting [1], 2.75 ± 0.55; under setting [2], 2.47 ± 0.71.

In the case of KPVDMWACGVILYILLVGYPPFWD [CAMK2D], the protein stability index reads like this: under setting [1], 3.46 ± 0.29; under setting [2], 3.36 ± 0.41.

Regarding KPYGCVECGKAFSRSSILVQHQRV [ZNF24], the protein stability index turned out to be 2.07 ± 0.17 under setting [1] and 2.11 ± 0.2 under setting [2].

For KQIIRKHAQTFVALCATDVKFISN [CCND1], the protein stability index turned out to be 2.26 ± 0.1 under setting [1] and 2.39 ± 0.055 under setting [2].

In the case of KQLVSPAAALLSNTTCQTENRLSV [PTGFR], the protein stability index under setting [1] stood at 3.74 ± 0.25 and the protein stability index under setting [2] is 3.99 ± 0.2.

In the case of KQNPGKFCLLSCGILTFLAVLGRY [RETREG3], the protein stability index was 2.33 ± 0.55 under setting [1] and 2.54 ± 0.37 under setting [2].

KQNPSRQEVTKLQQQVKTNGAGVT [FBXO28]: the protein stability index is, setting by setting: under setting [1], 4.68 ± 0.2; under setting [2], 4.47 ± 0.35.

In the case of KRTIIPTLVEAIKEQDGREVDWEY [DFFB], the protein stability index reads like this: under setting [1], 4.14 ± 0.11; under setting [2], 4.36 ± 0.42.

For KSMHREELEKSGHGQAGQRQDPRP [ZBED2], the protein stability index worked out at 5.21 ± 0.13 under setting [1] and 5.2 ± 0.3 under setting [2].

With KSNQPKSLEDLIFESLPENASHKL [ATE1], the protein stability index turned out to be 4.28 ± 0.21 under setting [1] and 4.5 ± 0.14 under setting [2].
